The results in this text go back to patent publication US20230365672A1 (KINDRED BIOSCIENCES, published 2023).

Residue numbers refer to the chain shown, from its start.

The target in assay [1] is T1, biotinylated equine IL31 (immobilized to the biolayer interferometry sensor) (equine, biotinylated, sites not stated).
T1 chain: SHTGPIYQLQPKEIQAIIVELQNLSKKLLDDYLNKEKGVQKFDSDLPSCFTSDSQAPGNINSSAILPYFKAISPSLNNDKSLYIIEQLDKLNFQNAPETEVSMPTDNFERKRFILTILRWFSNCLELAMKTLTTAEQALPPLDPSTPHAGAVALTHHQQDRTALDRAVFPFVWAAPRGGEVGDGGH
As to the kind of experiment: biolayer interferometry, biotinylated equine IL31 on the sensor, preliminary measurement. A general note: BLI is a label-free optical method that tracks binding on a fibre tip over time.

The target of assay [2] is T2, canine IL31 with C-terminal polyHis tag (canine, biotinylated (EZ-Link NHS-LC-biotin), sites not stated).
T2 construct: also called biotinylated canine IL31
T2 chain: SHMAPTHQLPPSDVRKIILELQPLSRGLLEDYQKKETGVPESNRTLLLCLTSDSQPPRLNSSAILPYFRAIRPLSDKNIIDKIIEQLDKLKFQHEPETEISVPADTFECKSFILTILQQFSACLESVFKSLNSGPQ
As to the kind of experiment: biolayer interferometry (Octet), biotinylated canine IL31 on streptavidin tips, 2:1 binding model. The procedure:
The binding analysis was performed using a biosensor Octet as follows. Briefly, canine IL31 was biotinylated. The free unreacted biotin was removed from biotinylated IL31 by extensive dialysis. Biotinylated canine IL31 was captured on streptavidin sensor tips. The association of four different concentrations (400, 200, 66.6, and 33 nM) of antibody and IL31 (human and canine, in different tests) was monitored for ninety seconds. Dissociation was monitored for 600 seconds. A buffer only blank curve was subtracted to correct for any drift. The data were fit to a 2:1 binding model using ForteBio™ data analysis software to determine the kₒₙ, koff, and the Kd. The buffer for dilutions and all binding steps was: 20 mM phosphate, 150 mM NaCl, pH 7.2.

B1: M14 antibody (as used in Example 7) (antibody, V domains shown)
VH: EVQLQESGPSLVKPSQTLSLTCSVTGDSITSGYWNWIRKFPGNKLEYMGYISYSGITDYNPSLKSRISITRDTSKNQYYLQLNSVTTEDTATYYCARYGNYGYAMDYWGQGTSVTVSS
VL: DIVLTQSPASLAVSLGQRATISCRASESVDTYGNSFMHWYQQKSGQSPKLLIYRASNLESGIPARFGGSGSRTDFTLTIDPVEADDVATYYCQQSYEDPWTFGGGTKLEIK
notes: also called monoclonal antibody M14
Broadly, the Kd is the concentration at which binding is half-saturated. A low value points to a tighter complex. The molecule B1 displayed a Kd in assay [1] of 10 to 50 nM.

B2: caninized M14 IgG-B (antibody, V domains shown)
VH: B1 VH with Q5V, S15G, Q16G, T17S, S19R, S68T, T70S, S113L
VL: DIVMTQSPASLSVSLGQRATISCRASESVDTYGNSFMHWYQQKPGQSPKLLIYRASNLESGIPARFGGSGSGTDFTLTIDPVQADDVATYYCQQSYEDPWTFGGGTKLEIKR
notes: canine IgG-B; also called caninized M14 antibody; caninized IL31-mAb M14
B2: the Kd in assay [2] is < 0.01 nM.
